Patent WO2019016784A1 (dated 2019)

What was measured:
human recombinant TNF-a = target: T1, human recombinant TNF-a (human, UniProt P01375 77-233); test: ELISA, 200 ng human TNF-a coated, 100 pmol VHH, anti-HA-peroxidase detection
T1 construct: Coated at 200 ng per well in the ELISA; also called human TNF-a

[1] = target: T2, human recombinant nucleolin (human, UniProt P19338 1-710, limits assumed); test: ELISA, 100 ng human nucleolin coated, 100 pmol VHH, anti-HA-peroxidase detection
T2 construct: also called human nucleolin
T2 sequence (P19338 whole entry, form in doubt): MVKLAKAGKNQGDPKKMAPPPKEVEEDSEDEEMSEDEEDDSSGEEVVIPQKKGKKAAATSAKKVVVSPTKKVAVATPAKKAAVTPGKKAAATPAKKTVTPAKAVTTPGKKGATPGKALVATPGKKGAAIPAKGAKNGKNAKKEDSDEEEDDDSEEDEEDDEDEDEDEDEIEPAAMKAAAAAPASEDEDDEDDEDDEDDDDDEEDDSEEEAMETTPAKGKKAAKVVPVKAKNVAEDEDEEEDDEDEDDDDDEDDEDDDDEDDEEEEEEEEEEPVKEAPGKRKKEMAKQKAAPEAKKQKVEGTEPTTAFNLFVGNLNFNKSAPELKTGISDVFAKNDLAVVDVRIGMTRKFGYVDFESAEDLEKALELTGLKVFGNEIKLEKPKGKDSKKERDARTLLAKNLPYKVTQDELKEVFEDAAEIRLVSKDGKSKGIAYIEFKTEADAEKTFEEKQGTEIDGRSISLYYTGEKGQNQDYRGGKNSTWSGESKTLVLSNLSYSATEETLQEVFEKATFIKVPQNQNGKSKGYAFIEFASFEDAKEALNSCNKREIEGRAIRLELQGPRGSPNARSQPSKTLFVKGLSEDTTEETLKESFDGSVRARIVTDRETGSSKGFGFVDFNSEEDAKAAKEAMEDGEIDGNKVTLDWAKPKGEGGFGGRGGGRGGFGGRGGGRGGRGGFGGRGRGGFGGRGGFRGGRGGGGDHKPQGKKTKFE

T1 sequence (P01375 77-233 limits assumed): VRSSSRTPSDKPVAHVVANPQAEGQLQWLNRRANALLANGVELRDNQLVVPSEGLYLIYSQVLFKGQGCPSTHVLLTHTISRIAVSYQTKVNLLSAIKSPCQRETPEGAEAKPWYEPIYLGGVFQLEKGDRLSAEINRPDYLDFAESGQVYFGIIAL

Row | percent lower binding to TNF-a than the parental VHH (human recombinant TNF-a) | fold increased nucleolin binding relative to the parental VHH [1] | Binder
1 | ~40% | 3 fold | aNCL-CDR3 VHH (VHH, The entry holds leader peptide, His tag and HA tag; also called CDR3-grafted VHH; anti-nucleolin VHH) VHH: QVQLQESGGGLVQPGGSLRLSCAASGRTFSDHSGYTYTIGWFRQAPGKEREFVARIYWSSGNTYYADSVKGRFAISRDIAKNTVDLTMNNLEPEDTAVYYCAAPQRRSARLSAWGQGTQVTVSS
2 | ~40% | 3 fold | aNCL-CDR3-L VHH (VHH, The entry holds leader peptide, His tag and HA tag; also called CDR3-grafted VHH with SGGGS linkers) VHH: QVQLQESGGGLVQPGGSLRLSCAASGRTFSDHSGYTYTIGWFRQAPGKEREFVARIYWSSGNTYYADSVKGRFAISRDIAKNTVDLTMNNLEPEDTAVYYCAASGGGSPQRRSARLSASGGGSWGQGTQVTVSS

Continued, binder first:

Row | Binder | percent lower binding to TNF-a than the parental VHH (human recombinant TNF-a) | fold increased nucleolin binding relative to the parental VHH [1]
3 | aNCL-CDR1 VHH (VHH, The entry is expected to hold leader peptide, His tag and HA tag like the others; also called aNCL-CDRl; a-NCL-CDRl VHH) VHH: QVQLQESGGGLVQPGGSLRLSCAASPQRRSARLSAWFRQAPGKEREFVARIYWSSGNTYYADSVKGRFAISRDIAKNTVDLTMNNLEPEDTAVYYCAARDGIPTSRSVESYNYWGQGTQVTVSS | ~40% | 2 fold
4 | aNCL-CDR1-L VHH (VHH, The entry holds leader peptide, His tag and HA tag; also called aNCL-CDRl-L; CDR1-grafted VHH with SGGGS linkers) VHH: QVQLQESGGGLVQPGGSLRLSCAASSGGGSPQRRSARLSASGGGSWFRQAPGKEREFVARIYWSSGNTYYADSVKGRFAISRDIAKNTVDLTMNNLEPEDTAVYYCAARDGIPTSRSVESYNYWGQGTQVTVSS | ~40% | 2 fold
